# Test results reported in patent publication US20030157101A1, “Immunogenic ALK peptides” (priority 2001, published 2003).
# B1: ALK peptide p621-629 (SLTANMKEV) (peptide)
# peptide: SLTANMKEV
# notes: C-terminal portion of the protein; also called p621-29
# Target: T1, HLA-A*0201 molecules on TAP-deficient T2 cells (human)
# T1 construct: Peptide-receptive class I molecule on T2 cells; also called HLA-A2.1; HLA-A2
# Assay: T2 cell HLA-A*0201 stabilisation, 100 uM peptide, flow cytometry with mAb BB7.2; mean of 4 experiments ± SEM
# Experimental: T2 cells were incubated with 100 μM of peptide in serum-free RPMI 1640 supplemented with 5 μg/ml of human β₂m (Fluka, Buchs, Germany) for 18 hrs at 37° C.
binder,measurement,value
B1,FI (Fluorescence Index),3.5 ratio (sample / irrelevant-peptide control)
